Measured values: patent US20220031857A1 (OSSIANIX, published 2022)

T1: recombinant mouse TfR2 (mouse, UniProt Q9JKX3 103-798, limits assumed)
T1 construct: Negative control protein
T1 sequence (looked up): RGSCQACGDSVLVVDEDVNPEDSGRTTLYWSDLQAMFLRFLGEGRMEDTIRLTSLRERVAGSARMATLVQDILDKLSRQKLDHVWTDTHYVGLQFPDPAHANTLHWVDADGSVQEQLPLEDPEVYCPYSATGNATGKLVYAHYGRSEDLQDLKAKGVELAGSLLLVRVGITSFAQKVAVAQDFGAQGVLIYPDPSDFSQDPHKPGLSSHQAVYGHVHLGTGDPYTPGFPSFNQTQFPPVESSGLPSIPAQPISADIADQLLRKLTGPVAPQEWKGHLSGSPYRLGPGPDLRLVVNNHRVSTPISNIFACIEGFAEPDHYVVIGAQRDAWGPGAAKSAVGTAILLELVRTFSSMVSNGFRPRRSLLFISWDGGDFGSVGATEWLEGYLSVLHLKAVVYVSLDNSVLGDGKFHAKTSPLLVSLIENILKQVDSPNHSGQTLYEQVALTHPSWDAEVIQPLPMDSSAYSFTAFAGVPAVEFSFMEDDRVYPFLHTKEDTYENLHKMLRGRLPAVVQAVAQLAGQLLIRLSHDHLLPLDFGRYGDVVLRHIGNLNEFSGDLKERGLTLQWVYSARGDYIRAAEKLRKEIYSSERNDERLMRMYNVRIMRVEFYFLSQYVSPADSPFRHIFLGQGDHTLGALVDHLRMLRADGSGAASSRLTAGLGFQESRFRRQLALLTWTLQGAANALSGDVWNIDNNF


Legend:
Assay in all cases: phage ELISA
recombinant mouse TfR2 = molecular target: T1, recombinant mouse TfR2
[1] = molecular target: T2, recombinant human TfR1 (transferrin receptor 1) (human, UniProt P02786 89-760)
T2 construct: Bought recombinant His-tagged protein; also called hTfR1

human serum albumin = molecular target: T3, human serum albumin (human, UniProt P02768 25-609)
T3 construct: Negative control protein; also called HSA

[2] = molecular target: T4, recombinant mouse TfR1 (transferrin receptor 1) (mouse, UniProt Q62351 89-763)
T4 construct: Bought recombinant His-tagged protein; also called mTfR1
T4 sequence (Q62351 89-763 limits assumed): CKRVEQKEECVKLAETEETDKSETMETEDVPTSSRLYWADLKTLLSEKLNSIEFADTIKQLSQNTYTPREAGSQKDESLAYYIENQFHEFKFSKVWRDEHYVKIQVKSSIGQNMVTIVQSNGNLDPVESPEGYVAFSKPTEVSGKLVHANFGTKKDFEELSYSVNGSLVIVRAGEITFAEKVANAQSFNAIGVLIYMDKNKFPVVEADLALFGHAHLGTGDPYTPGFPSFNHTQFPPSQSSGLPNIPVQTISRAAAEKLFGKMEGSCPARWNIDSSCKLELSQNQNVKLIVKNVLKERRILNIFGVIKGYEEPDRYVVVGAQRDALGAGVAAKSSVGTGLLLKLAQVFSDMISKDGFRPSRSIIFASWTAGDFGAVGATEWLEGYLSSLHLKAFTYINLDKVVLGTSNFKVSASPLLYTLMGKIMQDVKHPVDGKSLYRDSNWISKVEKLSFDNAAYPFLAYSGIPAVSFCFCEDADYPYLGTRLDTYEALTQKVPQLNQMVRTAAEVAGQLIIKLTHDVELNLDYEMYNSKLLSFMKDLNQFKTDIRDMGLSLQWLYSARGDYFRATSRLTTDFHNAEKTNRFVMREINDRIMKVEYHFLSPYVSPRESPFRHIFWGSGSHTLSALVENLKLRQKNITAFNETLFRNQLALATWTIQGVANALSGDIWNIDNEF

T2 sequence (P02786 89-760 limits assumed): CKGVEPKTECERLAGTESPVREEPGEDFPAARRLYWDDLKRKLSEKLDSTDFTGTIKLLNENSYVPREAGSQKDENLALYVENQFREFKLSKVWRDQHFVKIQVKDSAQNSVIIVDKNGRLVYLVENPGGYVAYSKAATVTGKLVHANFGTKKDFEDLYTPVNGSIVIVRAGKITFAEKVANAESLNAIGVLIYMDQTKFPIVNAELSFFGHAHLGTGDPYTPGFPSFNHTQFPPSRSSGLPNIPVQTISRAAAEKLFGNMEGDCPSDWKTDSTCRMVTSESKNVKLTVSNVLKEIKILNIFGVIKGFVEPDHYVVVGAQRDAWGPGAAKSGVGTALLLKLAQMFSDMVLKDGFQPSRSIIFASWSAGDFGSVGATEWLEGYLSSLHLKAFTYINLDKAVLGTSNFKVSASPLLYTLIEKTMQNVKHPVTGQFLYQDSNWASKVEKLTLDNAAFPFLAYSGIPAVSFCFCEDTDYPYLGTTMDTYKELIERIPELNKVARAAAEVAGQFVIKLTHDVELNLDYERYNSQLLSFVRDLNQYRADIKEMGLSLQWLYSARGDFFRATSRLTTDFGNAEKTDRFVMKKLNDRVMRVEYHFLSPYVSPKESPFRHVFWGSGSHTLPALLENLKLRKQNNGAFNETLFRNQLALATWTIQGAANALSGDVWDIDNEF
T3 sequence (P02768 25-609 limits assumed): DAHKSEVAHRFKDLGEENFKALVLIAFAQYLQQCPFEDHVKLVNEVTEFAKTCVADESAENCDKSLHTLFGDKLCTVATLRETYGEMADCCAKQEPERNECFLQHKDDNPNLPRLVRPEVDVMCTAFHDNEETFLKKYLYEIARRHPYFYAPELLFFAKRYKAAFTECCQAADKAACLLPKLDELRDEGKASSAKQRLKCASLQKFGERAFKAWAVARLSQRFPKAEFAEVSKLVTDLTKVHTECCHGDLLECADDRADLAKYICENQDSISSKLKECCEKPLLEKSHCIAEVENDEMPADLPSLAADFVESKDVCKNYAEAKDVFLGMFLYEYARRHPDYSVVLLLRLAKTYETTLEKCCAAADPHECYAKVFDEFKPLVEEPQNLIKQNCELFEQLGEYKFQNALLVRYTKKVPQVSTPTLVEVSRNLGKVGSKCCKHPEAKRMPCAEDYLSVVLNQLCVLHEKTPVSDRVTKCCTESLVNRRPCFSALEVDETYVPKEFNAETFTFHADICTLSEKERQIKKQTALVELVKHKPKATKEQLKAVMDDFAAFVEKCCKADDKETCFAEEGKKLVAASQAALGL

Row | Binder | binding result (recombinant mouse TfR2) | binding result [1] | binding result (human serum albumin) | binding result [2]
1 | SEQ ID NO 50 (VNAR clone displayed on phage) (VNAR, shark VNAR domain on M13 phage; coat-protein fusion not described) VNAR: ARVDQTPRSVTKETGESLTINCVLRDASYALGSTCWYRKKSGSTNEESISKGGRYVETVNSGSKSFSLRINDLTVEDGGTYRCGVMNNVSQTWVRCDSQVMSQQCVQQSAACGDGTAVTVNA | no binding | binds | no binding | binds
2 | SEQ ID NO 39 (VNAR clone displayed on phage) (VNAR, shark VNAR domain on M13 phage; coat-protein fusion not described; also called clone 39) ARVDQTPQTITKETGESLTINCVLRDSNCALSSTLWYRTKSGSRNEESISKGGRYVETVNSGSKSFSLKINDLTVEDSGTYRCNVQGMVYDGSSFWWCDVYGDSTAVTVNA | no binding | – | no binding | –
3 | SEQ ID NO 49 (VNAR clone displayed on phage) (VNAR, shark VNAR domain on M13 phage; coat-protein fusion not described) VNAR: ARVDQTPRSVTKETGESLTINCVLRDASYELGSTCWYRKKSGSTNEESISKGGRYVETVNSGSKSFSLRINDLTVEDGGTYRCGVISQYKSYTLWCDALYRSLGCECARAACGDGTAVTVNA | no binding | binds | no binding | binds
4 | SEQ ID NO 48 (VNAR clone displayed on phage) (VNAR, shark VNAR domain on M13 phage; coat-protein fusion not described) VNAR: ARVDQTPRSVTKETGESLTINCVLRDASYELGSTCWYRKKSGSTNEESISKGGRYVETVNSGSKSFSLRINDLTVEDGGTYRCGASLQCGNCELCDREQLQCGGQRGQLAACGDGTAVTVNA | no binding | binds | no binding | binds
5 | SEQ ID NO 7 (VNAR clone displayed on phage) (VNAR, shark VNAR domain on M13 phage; coat-protein fusion not described; also called clone 7) VNAR: ARVDQTPQTITKETGESLTINCVLRDSNCELSSTYWYRKKSGSTNEARISKGGRYVETVNSGSKSFSLKINDLTVEDSGTYRCNVLTTDSYDLGDVYGDGTVVTVNA | no binding | – | no binding | –
6 | SEQ ID NO 46 (VNAR clone displayed on phage) (VNAR, shark VNAR domain on M13 phage; coat-protein fusion not described) VNAR: ARVDQTPRSVTKETGESLTINCVLRDASYALGSTCWYRKKSGSTNEESISKGGRYVETVNSGSKSFSLRINDLTVEDGGTYRCGVCSDYGLQTTGQQAACGDGTAVTVNA | no binding | – | no binding | –
7 | SEQ ID NO 11 (VNAR clone displayed on phage) (VNAR, shark VNAR domain on M13 phage; coat-protein fusion not described; also called clone 11) VNAR: ARVDQTPQTITKETGESLTINCVLRDSNCALPSTHWYRKKSGSTNEESISKGGRYVETVNSGSKSFSLRINDLTVEDSGTYRCKVLNFFTHTCVQVQKYDVYGGGTAVTVNA | no binding | binds | no binding | –
8 | SEQ ID NO 43 (VNAR clone displayed on phage) (VNAR, shark VNAR domain on M13 phage; coat-protein fusion not described) VNAR: ARVDQTPRSVTKETGESLTINCVLRDASYALGSTCWYRKKSGSTNEESISKGGRYVETVNSGSKSFSLRINDLTVEDGGTYRCGVYGGTHQGLCGCDWQLRFSLCGDGRAACGDGTAVTVNA | no binding | binds | no binding | binds
9 | SEQ ID NO 2 (VNAR clone displayed on phage) (VNAR, shark VNAR domain on M13 phage; coat-protein fusion not described; also called clone 2) VNAR: ARVDQTPQTITKETGESLTINCVLRDNNCALSTTYWYRKKSGSTNEENISKGGRYVETVNSGSKSFSLKINDLTVEDSGTYRCNVFGVDNGWWCDVYGGGTVVTVNA | no binding | – | no binding | –
10 | SEQ ID NO 51 (VNAR clone displayed on phage) (VNAR, shark VNAR domain on M13 phage; coat-protein fusion not described) VNAR: ARVDQTPRSVTKETGESLTINCVLRDASYALGSTCWYRKKSGSTNEESISKGGRYVETVNSGSKSFSLRINDLTVEDSGTYRCNVIQYLYLGSYFACDVYGGGTVVTVNA | no binding | binds | no binding | binds
11 | SEQ ID NO 45 (VNAR clone displayed on phage) (VNAR, shark VNAR domain on M13 phage; coat-protein fusion not described) VNAR: ARVDQTPRSVTKETGESLTINCVLRDASYALGSTCWYRKKSGSTNEESISKGGRYVETVNSGSKSFSLRINDLTVEDGGTYRCGVCESSFCSLPYDCDSSSAGSVIQPFGHIVSLAACGDGTAVTVNA | no binding | binds | no binding | binds
12 | SEQ ID NO 12 (VNAR clone displayed on phage) (VNAR, shark VNAR domain on M13 phage; coat-protein fusion not described; also called clone 12) VNAR: ARVDQTPQTITKETGESLTINCVLRDSICALSSTHWYRKKSGSTNEESISKGGRYVETVNSGSKSFSLRINDLTVEDSGTYRCKVVRSGVGPCWADVYGGGTAVTVNA | no binding | – | no binding | –
13 | SEQ ID NO 10 (VNAR clone displayed on phage) (VNAR, shark VNAR domain on M13 phage; coat-protein fusion not described; also called clone 10) VNAR: ARVDQTPQTITKETGESLTINCVLRDSNCALSSTYWYRKKSGSTNEENISKGGRYVETVNSGSKSFSLRINDLTVEDSGTYRCNVVQYPSYNNYFWCDVYGDGTAVTVNA | no binding | – | no binding | –
14 | SEQ ID NO 42 (VNAR clone displayed on phage) (VNAR, shark VNAR domain on M13 phage; coat-protein fusion not described) VNAR: ARVDQTPRSVTKETGESLTINCVLRDASYALGSTCWYRKKSGSTNEESISKGGRYVETVNSGSKSFSLRINDLTVEDGGTYRCGVCEMQLIAVDSCDHTLDDGLCGGVYAACGDGTAVTVNA | no binding | binds | no binding | binds
15 | SEQ ID NO 1 (VNAR clone displayed on phage) (VNAR, shark VNAR domain on M13 phage; coat-protein fusion not described; also called clone 1) VNAR: ARVDQTPQTITKETGESLTINCVLRDNNCALSTTYWYRKKSGSTNEENISKGGRYVETVNSGSKSFSLKINDLTVEDSGTYRCNVRDVQACGNDWVWLDVYGGGTVVTVNA | no binding | – | no binding | –
16 | SEQ ID NO 44 (VNAR clone displayed on phage) (VNAR, shark VNAR domain on M13 phage; coat-protein fusion not described) VNAR: ARVDQTPRSVTKETGESLTINCVLRDASYALGSTCWYRKKSGSTNEESISKGGRYVETVNSGSKSFSLRINDLTVEDGGTYRCGVCQCWSANVWVDCDMTSTSIRMRDGSRSNARAACGDGTAVTVNA | no binding | binds | no binding | binds
17 | SEQ ID NO 47 (VNAR clone displayed on phage) (VNAR, shark VNAR domain on M13 phage; coat-protein fusion not described) VNAR: ARVDQTPRSVTKETGESLTINCVLRDASYALGSTCWYRKKSGSTNEESISKGGRYVETVNSGSKSFSLRINDLTVEDGGTYRCGAAIQGFWAGRCDNLPGKCVMQVSNAAACGDGTAVTVNA | no binding | binds | no binding | binds
